Laboratory results reported in patent US20080176209.

Test system: TL-3

## FIV protease (Feline Immunodeficiency Virus protease)
  enzymatic reaction activity in a kinetic FRET assay with a fluorogenic substrate peptide over a 20 minute time course: the enzymatic activity was blocked by TL-3
